Data reported in US20100260763A1 (DOMANTIS, published 2010).

Legend:
[1] = biological target: T1, human TNFR1, soluble recombinant protein (human, UniProt P19438 22-211, limits assumed, biotinylated in the BIAcore assays (coupling via primary amines)); assay: phage ELISA, plate coated with 1 nM TNFR1, anti-M13-HRP; trypsin 100 µg/ml 1 h room temp; phage input 5.64E+09
T1 construct: also called biotinylated TNFR1; human recombinant E. coli-expressed human TNFR1
T1 sequence (looked up): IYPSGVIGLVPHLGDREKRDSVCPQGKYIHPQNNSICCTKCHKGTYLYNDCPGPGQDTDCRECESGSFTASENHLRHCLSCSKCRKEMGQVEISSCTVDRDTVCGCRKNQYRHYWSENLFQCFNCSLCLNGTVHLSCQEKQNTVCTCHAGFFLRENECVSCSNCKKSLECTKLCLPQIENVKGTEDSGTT

[2] = biological target: T1, human TNFR1, soluble recombinant protein; assay: phage ELISA, plate coated with 1 nM TNFR1, anti-M13-HRP; trypsin 1 mg/ml 1 h room temp; phage input 7.05E+08
[3] = biological target: T1, human TNFR1, soluble recombinant protein; assay: phage ELISA, plate coated with 1 nM TNFR1, anti-M13-HRP; trypsin 0 µg/ml; phage input 2.26E+10
[4] = biological target: T1, human TNFR1, soluble recombinant protein; assay: phage ELISA, plate coated with 1 nM TNFR1, anti-M13-HRP; trypsin 100 µg/ml 1 h room temp; phage input 2.82E+09
[5] = biological target: T1, human TNFR1, soluble recombinant protein; assay: phage ELISA, plate coated with 1 nM TNFR1, anti-M13-HRP; trypsin 10 µg/ml 1 h room temp; phage input 5.64E+09
[6] = biological target: T1, human TNFR1, soluble recombinant protein; assay: phage ELISA, plate coated with 1 nM TNFR1, anti-M13-HRP; trypsin 10 µg/ml 1 h room temp; phage input 7.05E+08
[7] = biological target: T1, human TNFR1, soluble recombinant protein; assay: phage ELISA, plate coated with 1 nM TNFR1, anti-M13-HRP; trypsin 100 µg/ml 1 h room temp; phage input 2.26E+10
[8] = biological target: T1, human TNFR1, soluble recombinant protein; assay: phage ELISA, plate coated with 1 nM TNFR1, anti-M13-HRP; trypsin 0 µg/ml; phage input 3.52E+08
[9] = biological target: T1, human TNFR1, soluble recombinant protein; assay: phage ELISA, plate coated with 1 nM TNFR1, anti-M13-HRP; trypsin 100 µg/ml 1 h room temp; phage input 3.52E+08
[10] = biological target: T1, human TNFR1, soluble recombinant protein; assay: phage ELISA, plate coated with 1 nM TNFR1, anti-M13-HRP; trypsin 10 µg/ml 1 h room temp; phage input 4.51E+10
[11] = biological target: T1, human TNFR1, soluble recombinant protein; assay: phage ELISA, plate coated with 1 nM TNFR1, anti-M13-HRP; trypsin 100 µg/ml 1 h room temp; phage input 1.13E+10
[12] = biological target: T1, human TNFR1, soluble recombinant protein; assay: phage ELISA, plate coated with 1 nM TNFR1, anti-M13-HRP; trypsin 10 µg/ml 1 h room temp; phage input 3.52E+08

## DOM1h-131 displayed on phage
[1]
  phage ELISA read-out: 0.196
[2]
  phage ELISA read-out: 0.084
[3]
  phage ELISA read-out: 0.944
[4]
  phage ELISA read-out: 0.141
[5]
  phage ELISA read-out: 0.695
[6]
  phage ELISA read-out: 0.286
[7]
  phage ELISA read-out: 0.377
[8]
  phage ELISA read-out: 0.577
[9]
  phage ELISA read-out: 0.084
[10]
  phage ELISA read-out: 0.784
[11]
  phage ELISA read-out: 0.284
[12]
  phage ELISA read-out: 0.213
